# In patent US12551583B2, “Radiolabeled ligands for targeted PET/SPECT imaging and methods of their use” (MEMORIAL SLOAN KETTERING CANCER CENTER, priority 2016, dated 2026):
# Columns and labels:
# in vivo = conditions: female, BALB/c, mouse, iv, total radioactivity; for tissue uptake at 24 h: 4T1 tumoral uptake; for tissue uptake at 4 h: biodistribution, Tumor (4T1 tumoral uptake)
# Experimental: (§1) 4T1 orthotopic BALB/c mouse model. The cells were removed from the flasks, concentrated, and resuspended in minimal media for cell counting. The cells were then diluted to contain approximately 1 million cells in 30 μL of media (for orthotopic allografts). Following an MSKCC Institutional Animal Care and Use Committee approved protocol, 8-10 week old BALB/c mice (Charles River Laboratories, Wilmington, MA) were surgically implanted with one million 4T1 cancer cells into the first or the last mammary fat pad of the right side of the animal using aseptic surgical techniques and sterile staple closures while the mice were under anesthetic. Additionally, mice were given injections of meloxicam (24 h pain killer) in the scruff and bupivacaine intradermally prior to surgical incisions. One day post surgery, the mice were again given meloxicam and checked to ensure that the closure was healing. Two and three days post surgery, the mice were checked to ensure that the animals were healthy and recovering well from the surgery. Five to seven days post surgery, the staples were removed. Five to nine days post surgery, the mice were injected with 50-75 μCi (0.9-0.4 nmol) of the respective radiopharmaceutical for in vivo biodistribution or 500-600 μCi (9-11 nmol) for in vivo imaging. The mice receiving ^64Cu-NOTA-pHLIP were sacrificed at 1, 2, 4, 12, 24, 36, and 48 h; the mice receiving [^18F]—AlF-NOTA-pHLIP were sacrificed at 0.5, 1, 2, 4, 6 and 8 h. The 4T1 tumors in this study were purposely used 5-9 days after inoculation to ensure lower tumoral pH. Animal models. Animal studies were conducted according to MSKCC IACUC-approved animal protocol. 4T1 (orthotopic breast cancer allografts of 1×10^6 cells surgically implanted in the mammary fat pad) and B16-F10 (orthotopic melanoma allografts of 1×10^5 cells injected intradermally on the shoulder) tumors were orthotopically inoculated in media in female BALB/c and C57Bl/6 mice (Charles River Laboratories (CRL)), respectively. Additionally, PC3 (3×10^6 cells) or LNCaP (3-6×10^6 cells) tumors were subcutaneously xenografted on the shoulder of athymic nude male mice (CRL). Mice were used once tumor volumes were approximately 90-300 mm^3. In vivo animal PET imaging and biodistribution. Mice were injected with radiolabeled NOTA-pHLIP derivatives i.v. (500-700 μCi/mouse for PET or SPECT imaging studies and 25-100 μCi/mouse for biodistribution studies). All injections were less than 200 μL with <10% EtOH in sterile PBS. PET images were obtained with the mice under anesthesia in an Inveon PET-CT or microPET Focus 120 (Siemens) at 0.5-48 h p.i. All images were analyzed using ASIPro VM (Concorde Microsystems). SPECT images were obtained with the mice under anesthesia in a NanoSPECT/CT Plus at 4-24 h p.i. All SPECT images were reconstructed using HiSPECT and analyzed using InVivoScope. Dissections for ex vivo biodistribution were performed on mice after CO2 asphyxiation or cervical dislocation while anesthetized at reported time points. Weight of the syringe prior to injection and after injection was used to determine the mass of injectate. Activity of the syringe prior to injection and after injection was used to determine the percent of injectate administered. The mass injected was corrected by the percent of radioactivity injected. Four to five aliquots (10 μL) were weighed and counted as internal standards for each study. All of the collected organs were counted using an automatic gamma counter (Wizard 3″, PerkinElmer, Waltham, MA). The total injected dose was found as the mass injected dose×fraction radioactivity injected×internal standard average counts/g. The percent injected dose (% ID) was determined as the counts for the tissue×100/total injected dose. The % ID/g was calculated as the % ID/tissue weight. The average and standard deviation of the % ID and % ID/g was determined using normal methods (n−1) for each set of mice.
# [1] = tested on: 4T1 orthotopic tumor-bearing BALB/c mice; experiment: in vivo; conditions: mouse
# Experimental: as §1
smiles,measurement,setting,value
"CC(C)C[C@@H](NC(=O)[C@@H](CC(C)C)NC(=O)[C@@H](CC(=O)O)NC(=O)[C@@H](CC(C)C)NC(=O)[C@@H](CC(C)C)NC(=O)[C@@H](CC(C)C)NC(=O)[C@H](NC(=O)[C@@H](CC(=O)O)NC(=O)[C@H](NC(=O)[C@H]1CCCN1C(=O)[C@@H](Cc1ccccc1)NC(=O)[C@@H](CC(C)C)NC(=O)[C@@H](CC(C)C)NC(=O)[C@@H](CC(=O)O)NC(=O)[C@@H](CC(C)C)NC(=O)[C@@H](Cc1ccc(O)cc1)NC(=O)[C@@H](C)NC(=O)[C@@H](CCCNC(=N)N)NC(=O)[C@@H](Cc1c[nH]c2ccccc12)NC(=O)[C@H]1CCCN1C(=O)[C@@H](CC(N)=O)NC(=O)[C@@H](CCC(N)=O)NC(=O)[C@@H](CC(=O)O)NC(=O)[C@@H](CC(=O)O)NC(=O)[C@@H](CS)NC(=O)[C@@H](C)NC(=S)Nc1ccc(CC2CN(CC(=O)O)CCN(CC(=O)O)CCN2CC(=O)O)cc1)[C@H](C)O)[C@H](C)O)C(=O)N[C@H](Cc1c[nH]c2ccccc12)C(=O)O (single isomer, unassigned) [^67Ga-NOTA-Var3, metal not drawn]",tissue uptake at 24 h,in vivo; 50 uCi,2.93 ± 0.11 %ID/g
same,tissue uptake at 4 h,in vivo,2.05 ± 0.17 %ID/g
"CC(C)C[C@@H](NC(=O)[C@@H](CC(C)C)NC(=O)[C@@H](CC(=O)O)NC(=O)[C@@H](CC(C)C)NC(=O)[C@@H](CC(C)C)NC(=O)[C@@H](CC(C)C)NC(=O)[C@H](NC(=O)[C@@H](CC(=O)O)NC(=O)[C@H](NC(=O)[C@H]1CCCN1C(=O)[C@@H](Cc1ccccc1)NC(=O)[C@@H](CC(C)C)NC(=O)[C@@H](CC(C)C)NC(=O)[C@@H](CC(=O)O)NC(=O)[C@@H](CC(C)C)NC(=O)[C@@H](Cc1ccc(O)cc1)NC(=O)[C@@H](C)NC(=O)[C@@H](CCCNC(=N)N)NC(=O)[C@@H](Cc1c[nH]c2ccccc12)NC(=O)[C@H]1CCCN1C(=O)[C@@H](CC(N)=O)NC(=O)[C@@H](CCC(N)=O)NC(=O)[C@@H](CC(=O)O)NC(=O)[C@@H](CC(=O)O)NC(=O)[C@@H](CSC1CC(=O)N(CCNC(=O)CN2CCN(CC(=O)O)CCN(CC(=O)O)CC2)C1=O)NC(=O)[C@@H](C)N)[C@H](C)O)[C@H](C)O)C(=O)N[C@H](Cc1c[nH]c2ccccc12)C(=O)O (single isomer, unassigned) [^67Ga-NO2A-cysVar3, metal not drawn]",4T1 tumoral uptake,"[1]; female, BALB/c, iv, 50 uCi, 24 h",26±4 % ID/g
same,"biodistribution, Tumor (4T1 tumoral uptake)","[1]; female, BALB/c, iv, 4 h",12±3 % ID/g
same,tissue uptake at 24 h,in vivo; 500 uCi,34 ± 3 %ID/g
"CC(C)C[C@@H](NC(=O)[C@@H](CCC(=O)O)NC(=O)[C@@H](CC(C)C)NC(=O)[C@@H](CC(C)C)NC(=O)[C@@H](CC(C)C)NC(=O)[C@H](NC(=O)[C@@H](CCC(=O)O)NC(=O)[C@H](NC(=O)[C@H]1CCCN1C(=O)[C@@H](Cc1ccccc1)NC(=O)[C@@H](CC(C)C)NC(=O)[C@@H](Cc1c[nH]c2ccccc12)NC(=O)[C@@H](CCC(=O)O)NC(=O)[C@@H](CC(C)C)NC(=O)[C@@H](Cc1ccc(O)cc1)NC(=O)[C@@H](CCCNC(=N)N)NC(=O)[C@@H](C)NC(=O)[C@@H](Cc1c[nH]c2ccccc12)NC(=O)[C@H]1CCCN1C(=O)[C@@H](CC(N)=O)NC(=O)[C@@H](CCC(N)=O)NC(=O)[C@@H](CCC(=O)O)NC(=O)[C@@H](CCC(=O)O)NC(=O)[C@@H](CS)NC(=O)[C@@H](C)NC(=S)Nc1ccc(CC2CN(CC(=O)O)CCN(CC(=O)O)CCN2CC(=O)O)cc1)[C@H](C)O)[C@H](C)O)C(=O)O (single isomer, unassigned) [[^18F]—AlF-NOTA-Var7]",kidneys-to-large intestine ratio,[1],0.55±0.19
same,"biodistribution, Blood","[1]; iv, 4 h",2.292 ± 0.277 % ID/g
same,"biodistribution, Bone","[1]; iv, 4 h",0.571 ± 0.202 % ID/g
same,"biodistribution, Brain","[1]; iv, 4 h",0.118 ± 0.011 % ID/g
same,"biodistribution, Heart","[1]; iv, 4 h",0.78 ± 0.06 % ID/g
same,"biodistribution, Kidneys","[1]; iv, 4 h",7.759 ± 0.658 % ID/g
same,"biodistribution, L. intestine","[1]; iv, 4 h",22.08 ± 6.02 % ID/g
same,"biodistribution, Liver","[1]; iv, 4 h",1.089 ± 0.066 % ID/g
same,"biodistribution, Lungs","[1]; iv, 4 h",2.325 ± 0.212 % ID/g
same,"biodistribution, Muscle","[1]; iv, 4 h",0.325 ± 0.073 % ID/g
same,"biodistribution, Pancreas","[1]; iv, 4 h",0.373 ± 0.051 % ID/g
same,"biodistribution, S. intestine","[1]; iv, 4 h",0.776 ± 0.196 % ID/g
same,"biodistribution, Skin","[1]; iv, 4 h",1.377 ± 0.148 % ID/g
same,"biodistribution, Spleen","[1]; iv, 4 h",0.485 ± 0.029 % ID/g
same,"biodistribution, Stomach","[1]; iv, 4 h",0.593 ± 0.153 % ID/g
same,"biodistribution, Tumor (4T1 tumoral uptake)","[1]; iv, 4 h",1.105 ± 0.125 % ID/g
"CC(C)C[C@@H](NC(=O)[C@@H](Cc1ccc(O)cc1)NC(=O)[C@@H](C)NC(=O)[C@@H](CCCNC(=N)N)NC(=O)[C@@H](Cc1c[nH]c2ccccc12)NC(=O)[C@H]1CCCN1C(=O)[C@@H](CC(N)=O)NC(=O)[C@@H](CCC(N)=O)NC(=O)[C@@H](CC(=O)O)NC(=O)[C@@H](CC(=O)O)NC(=O)[C@@H](C)N)C(=O)N[C@H](CC(=O)O)C(=O)N[C@H](CC(C)C)C(=O)N[C@H](CC(C)C)C(=O)N[C@H](Cc1ccccc1)C(=O)N1CCC[C@@H]1C(=O)N[C@@H](C(=O)N[C@H](CC(=O)O)C(=O)N[C@@H](C(=O)N[C@H](CC(C)C)C(=O)N[C@H](CC(C)C)C(=O)N[C@H](CC(C)C)C(=O)N[C@H](CC(=O)O)C(=O)N[C@H](CC(C)C)C(=O)N[C@H](CC(C)C)C(=O)N[C@H](Cc1c[nH]c2ccccc12)C(=O)N[C@H](CSC1CC(=O)N(CCNC(=O)CN2CCN(CC(=O)O)CCN(CC(=O)O)CC2)C1=O)C(=O)NCC(=O)O)[C@H](C)O)[C@H](C)O (some centres unmarked) [^67Ga-NO2A-C^27Var3, metal not drawn]",tissue uptake at 24 h,in vivo; 50 uCi,23 ± 5 %ID/g
same,tissue uptake at 4 h,in vivo,20.5 ± 1 %ID/g
